One may read the Kd as the concentration at which binding is half-saturated. A low value points to tighter binding.

For this experiment, the target named is T1, Chordin VWC2 (UniProt Q9H2X0).
T1 chain: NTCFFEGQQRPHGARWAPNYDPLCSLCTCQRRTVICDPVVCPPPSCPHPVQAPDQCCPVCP
Kind of experiment: SPR.

B1: Crossveinless-2 (protein)
chain: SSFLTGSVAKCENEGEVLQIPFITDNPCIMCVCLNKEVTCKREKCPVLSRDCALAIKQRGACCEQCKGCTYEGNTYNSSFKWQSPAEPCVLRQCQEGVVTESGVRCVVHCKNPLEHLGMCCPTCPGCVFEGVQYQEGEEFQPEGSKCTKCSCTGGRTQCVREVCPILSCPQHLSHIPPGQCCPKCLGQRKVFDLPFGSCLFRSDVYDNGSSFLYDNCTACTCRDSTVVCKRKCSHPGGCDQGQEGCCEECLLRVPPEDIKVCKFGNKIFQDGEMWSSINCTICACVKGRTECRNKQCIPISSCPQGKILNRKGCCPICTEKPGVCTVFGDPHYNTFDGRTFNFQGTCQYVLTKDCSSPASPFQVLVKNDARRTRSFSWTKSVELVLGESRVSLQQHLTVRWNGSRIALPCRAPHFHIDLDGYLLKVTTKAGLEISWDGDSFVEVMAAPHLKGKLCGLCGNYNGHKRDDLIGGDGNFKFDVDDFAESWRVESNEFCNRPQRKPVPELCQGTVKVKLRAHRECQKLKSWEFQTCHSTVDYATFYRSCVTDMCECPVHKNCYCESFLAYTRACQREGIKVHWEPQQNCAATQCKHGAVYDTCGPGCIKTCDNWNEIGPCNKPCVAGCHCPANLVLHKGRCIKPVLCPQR
B1 yielded a Kd of 5 nM. That is a single-digit nanomolar value.

The values are drawn from PMC2944808 (2010).
